Laboratory results published in the nanobody polyreactivity screen of Harvey et al. (2022).

Assay: yeast display, Sf9 membrane polyspecificity reagent, FACS + sequencing; frameworks hold sequencing errors
Method in brief: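 Synthetic nanobody libraries on Saccharomyces cerevisiae BJ5465 were galactose-induced for 36–48 hours, stained 1 hour at 4 °C with 10% biotinylated, detergent-solubilized Sf9 membrane reagent and enriched on streptavidin microbeads. FACS then separated cells into low and high (top ~1%) gates by anti-HA (expression) and streptavidin (reagent binding) fluorescence. Genes were colony-PCR amplified, MiSeq 2 × 250 sequenced and CDR-length filtered. A clone's polyreactivity label is that of its gate of origin.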

Row | Sequence | polyreactivity (PSR sort gate)
1 | QVQLVESGGGLVQAGGSLRLSCAASGRIIYYYAMGWYRQAPGKERELVAAISWSGVNTYYADSVKGRFTISRDNAKNTVYLQMNSLKPEDTAVYYCAAGFAYKYSKGFWSDYWGQGTQVTVSS | high polyreactivity
2 | QVQLVESGGGLVQAGGSLRLSCAASGRILAINVMGWYRQAPGKERELVAAITLSSGSTYYADSVKGRFTMSRDNAKNTVYFQMNSLKPEDTAVYYCAADVYSGLSEGYYWGQGTQVTVSS | low polyreactivity
3 | QVQLVESGGGLVQAGGSLRLSCAASGRILAPYAMGWYRQAPGKERELVAAINWSTGRTYYADSVKGRFTISRDNAKNTVYLQMNSLKPEDTAVYYCAALIVFDTLYDYGYWGQGPQVTVSS | low polyreactivity
4 | QVQLVESGGGLVQAGGSLRLSCAASGRILARNAMGWYRQAPGKERELVAVISYSGGRTYYADSVKGRFTISRDNAKNTVYLQMNSLKPEDTAVYYCAASRSFQGNRYDYWGQGTQVTVSS | high polyreactivity
5 | QVQLVESGGGLVQAGGSLRLSCAASGRILARYAMGWYRQAPGKERELVASISRRGGSTYYADSVKGRFTISRDNAKNTVYLQMNSLKPEDTAVYYCNARGPVSSGYDYWGQGTQVTVSS | high polyreactivity
6 | QVQLVESGGGLVQAGGSLRLSCAASGRILDANDMGWYRQAPGKERELVAGINSGGSTYYADSVKGRFTISRDNAKNTVYLQMNSLKPEDTAVYYCAAGGVSAKYDYWGQGTKVTVSS | low polyreactivity
7 | QVQLVESGGGLVQAGGSLRLSCAASGRILDFNAMGWYRQAPGKERELVAAINNSGGSTYYADSVKGRFTISRDNAKNTVYLQMNSLKPEDTAVYYCARYAIWKRGYWGQGTQVNVSS | low polyreactivity
8 | QVQLVESGGGLVQAGGSLRLSCAASGRILDKYAMGWYRQAPGKERELVARIRFSGGDTYADSVKGRFTISRDNAKNTVYLQMNSLKPEDTAVYYCNKDRRNRWYAFDYWGQGTQVTVSS | low polyreactivity
9 | QVQLVESGGGLVQAGGSLRLSCAASGRILDVNDMGWYRQAPGKERELVAAISSGTNTYYADSVKGRFTISRDNAKNTVYLQMNSLKPEDTAVYYCAADYLGLSDADDYDYWGQGTQVTVSS | low polyreactivity
10 | QVQLVESGGGLVQAGGSLRLSCAASGRILFHYAMGWYRRAPGKERELVAAITWRGGGTHYADSVKGRFTISRDNAKNTVYLQKNSLKPEDTAVYYCNAEYNGYFSRSGFYYWGQGTQVTVSS | low polyreactivity
11 | QVQLVESGGGLVQAGGSLRLSCAASGRILFSYGAMGWYRQAPGKERELVAAISYSGGSTYYADSVKGRFTISRDNAKNTVYLQMNSLKPEDTAVYYCAASSIVYRHYYWGQGTQVTVSS | high polyreactivity
12 | QVQLVESGGGLVQAGGSLRLSCAASGRILGAYAMGWYRQAPGKERELVASISSGGRTYYADSVKGRFTISRDNAKNTVYLQINSLKQEDTAVYYCAAEYFIWSYPRYEYWGQGTQVNVSS | high polyreactivity
13 | QVQLVESGGGLVQAGGSLRLSCAASGRILGDYAMGWYRQAPGKEREFVAAIDYNGGSTNYADSVMGRFTISRDNAKNTVYLQMNSLKPEDTAVYYCAKTDGFYRGYGYWGQGTQVTVSS | low polyreactivity
14 | QVQLVESGGGLVQAGGSLRLSCAASGRILGKNTMGWYRQAPGKEREFVAAISASGGRTYYADSVKGRFTISRDNAKNTVYLQMNSLKPEDTAVYYCAAARSRYSYATGFDYWGQGTQVTVSS | high polyreactivity
15 | QVQLVESGGGLVQAGGSLRLSCAASGRILGKYAMGWYRQSPGKERELVAAIRLRGGSTYYADSVKGRFTISRDNAKNTLYLQMNSLKPEDTAVYYCAARFWDRSQAYNYWGQGTQVTVSS | high polyreactivity
16 | QVQLVESGGGLVQAGGSLRLSCAASGRILGYNAMGWYRQAPGKERELVAAITSGGSTYYADSVKGRFTISRDNAKNTVYLQMNRLKPEDTAVYYCAKRAFSYVGGQQDRNENYYYWGQGTQVTVSS | high polyreactivity
17 | QVQLVESGGGLVQAGGSLRLSCAASGRILIPYAMGWYRQAPGKEREFVAGITGSGGRTYYADSVKGRFTISRDNAKNTVYLQMNSLKPEDTAVYYCDAVYYYSPTMYYWGQGTQVTVSS | low polyreactivity
18 | QVQLVESGGGLVQAGGSLRLSCAASGRILKRNSMGWYRQAPGKERELVAAITSSGGSTYADSVKGRFTISRDNEKNTVYLQMNSLKPEDTAVYYCNAGYKRPWSHKYYWGQGTQVTVSS | low polyreactivity
19 | QVQLVESGGGLVQAGGSLRLSCAASGRILKVYAMGWSRQAPGKERELVAAITSGSSTYADSVKGRFTISRDNAKNTVYLQMNSLKPEDTAVYYCAAVFWVDILPGDYWGQGTQVTVSS | low polyreactivity
20 | QVQLVESGGGLVQAGGSLRLSCAASGRILKWNAMGWYRQAPGKERELVAAISQSGGSTYYADSVKGRFTISRDNAKNTVYLQMNSLKPEDTAVYYCATSGDWWGFRYDYWGQGTQVTVSS | low polyreactivity
21 | QVQLVESGGGLVQAGGSLRLSCAASGRILKYYAMGWYRQAPGKERELVAAISGSSGSTYYADSVKGRFTISRDNAKNTVYLQMNSLKPEDTAVYYCAAQGRDSTPHGYWGQGTQVTVSS | high polyreactivity
22 | QVQLVESGGGLVQAGGSLRLSCAASGRILLRNVMGWYRQAPGKERELVAVITRTGITYYADSVKGRFTISRDNAKNTVYLQMNSLKPEDTAVYYCAAGLPKYEHDYWGQGTQVNVSS | low polyreactivity

Row | Sequence | polyreactivity (PSR sort gate)
23 | QVQLVESGGGLVQAGGSLRLSCAASGRILNYYTMGWYRQAPGKERELVAAISGSDGNTYYADSVKGRFTISRDNAKNTVYLQKNSLKPEDTAVYYCSADLYDEWGQGTQVTVSS | low polyreactivity
24 | QVQLVESGGGLVQAGGSLRLSCAASGRILPRNAMGWYRQAPGKERELVAAISWDGGSTYYADSVKGRFTISRDNAKNTDYLHMNSLKPEDTAVYYCATDYPSLHRGMDYWGQGTQVTVSS | low polyreactivity
25 | QVQLVESGGGLVQAGGSLRLSCAASGRILPRNAMGWYRQAPGKERELVAGISSEGSTNYADSVKGRFTISRDNAKYTVYLQMNSLKPEDSAVYYCAADGVYDPNLYGYWGQGTQVNVSS | low polyreactivity
26 | QVQLVESGGGLVQAGGSLRLSCAASGRILPYYAMGWYRQAPGKERELVAAITSGGSTYYADSVKGRFTISRDNAKNTVYLQMNSLKPEDTAVYYCATDVDKSLYDYWGQGTQVTVSS | low polyreactivity
27 | QVQLVESGGGLVQAGGSLRLSCAASGRILRDYDMGWYRQSPGKERELVAAINWSDGSTYYADSVKGRFTISRDNAKNTVYLQMNSLKPEDPAVYYCAASRWRPLERGTTWLHDYWGQGTQVTVSS | low polyreactivity
28 | QVQLVESGGGLVQAGGSLRLSCAASGRILRFYAMGWYRQAPGKERELVATISRSGGSTYYADSVKGRFTISRDNAKNTVYLQMNSLKPEDTAVYYCNAFLYARQRDRWARYDYWGQGTQVTVSS | high polyreactivity
29 | QVQLVESGGGLVQAGGSLRLSCAASGRILRGYAMGWYRQAPGKERELVAAISWNGGSTYYADSVKGRFTISRDNAKNTVYLQMNSLKPEDTAVYYCAVVFNPHRYTGVLAGYDYWGQGTQVTVSS | high polyreactivity
30 | QVQLVESGGGLVQAGGSLRLSCAASGRILRHNAKGWYRQAPGKERELVAAITNGGSTYYADSVKGRFTISRDNAKNTVYLQMNCLKPEDTAVYYCAARTRLAQYSRGRYRYDYWGQGTQVTLSS | high polyreactivity
31 | QVQLVESGGGLVQAGGSLRLSCAASGRILRQYAMGWYRQAPGKERELVARISYSGGSTYYADSVKGRFTISRDNAKNTVYLQMNSLKPEDTAVYYCAARRPYKYDYWGQGTQVTVSS | high polyreactivity
32 | QVQLVESGGGLVQAGGSLRLSCAASGRILRVNAMGWYRQAPGKERELVATITFRGGSTYYADSVKGRCTISRDNAKNTVYLQMNSLKPEDTAVYSCAKVIYRYNETYDYWGQGTQVTVSS | high polyreactivity
33 | QVQLVESGGGLVQAGGSLRLSCAASGRILRYNALGWYRQAPGTERELVASISGNGGSTYYADSVKGRVTISRDNAKNTVYLQMNSLKPEDTALYYCNKYYYSSRGQKEYDYWGQGTQVTVSS | low polyreactivity
34 | QVQLVESGGGLVQAGGSLRLSCAASGRILRYNAMGCDRQAPGKERELVASISGNGGSTYYADSVKGRFTISRDNAKNTVYLQMNSLKPEDTAVYYCNKYSYSSRGQKEYDYWGQGTQVTVSS | low polyreactivity
35 | QVQLVESGGGLVQAGGSLRLSCAASGRILRYNAMGWYRQAPGKERELVASISGNGGSTYYADSVKGRFTISRDNAKNTVYLQMKSLKPEDTAVYYCNKYYYSSRGQKEYDYWGQGTQVTVSS | low polyreactivity
36 | QVQLVESGGGLVQAGGSLRLSCAASGRILSFYVMGWYRQAPGKERELVAAIRRGGSTYYADSVKGRFTISRDNAKNTVYLQMNSLKPEDTAVYYCNARQRPPPYYYWGQGTQVTVSS | high polyreactivity
37 | QVQLVESGGGLVQAGGSLRLSCAASGRILSGNAMGWYRQAPGKERELVAAITNAAITKYADSVKGRFTISRDNAKNTVYLQMNSLKPEDTAVYYCATDRYAYKLYDYWGQGTQVTVSS | low polyreactivity
38 | QVQLVESGGGLVQAGGSLRLSCAASGRILSGYTMGGYRQAPGKERELVAAINWRGGTTYYADSVKGRFTISRDNAKHTVYLQMNSLKPEDTAVYYCDADYYYQAGFYYWGQGTQVTVSS | low polyreactivity
39 | QVQLVESGGGLVQAGGSLRLSCAASGRILSPYAMGWYRQAPGKERELVAVINTSGGRTYYADSVKGRFTISRDNAKNTVYLQMNSLKPEDTAVYYCAARERKVQYDYWGQGTQVTVSS | high polyreactivity
40 | QVQLVESGGGLVQAGGSLRLSCAASGRILSTYARGWYRQAPGKETELVAAITRTSGSTYYADSVKGRFTISRDNAKNTVYLQMNSLKPEDTAVDYCAADTWLITWSGQYNSWGQGTQVTVSS | low polyreactivity
41 | QVQLVESGGGLVQAGGSLRLSCAASGRILSYYPMGWYRQAPGKERELVAVIRRGASTYADSVKGRFTISRDNAKKTVYLQMNILKPEDTAVYYCAAADRDYTTFRYDYWGQGTQVTVSS | low polyreactivity
42 | QVQLVESGGGLVQAGGSLRLSCAASGRILTLNAMGWYRPAPGKERELVASIRSTGRTYYADSVKWRFTISRDNAMNTVYLQMNSLKPEDTAVYYCAADTRYRYGAYPYYEYDYWGQGTQVTVSS | low polyreactivity
43 | QVQLVESGGGLVQAGGSLRLSCAASGRILTYNTMGWYRQAPGKERELVAAITWRGGSTYYADSVKGRFTISRDNAKNTVYLQMNSLKPEDTAVYYCAKYVAFHYKQYDFNWGQGTQVTVSS | high polyreactivity
